Experimental data from paper PMC3553216 (Biochemistry, 2013).
Like-named read-outs stand apart in the source and are kept apart here.

Key:
AUC [1] = experiment: AUC
[2] = target: full-length SaPC R54E mutant (Staphylococcus aureus); experiment: AUC
[3] = target: full-length SaPC R54E mutant (Staphylococcus aureus); experiment: SEC
[4] = target: full-length SaPC R54E mutant (Staphylococcus aureus); experiment: AUC; remark: listed apart in the source
[5] = target: isolated BC domain of SaPC, R54E mutant (Staphylococcus aureus); experiment: AUC
[6] = target: full-length SaPC F403A mutant (Staphylococcus aureus); experiment: AUC
[7] = target: full-length SaPC F403A mutant (Staphylococcus aureus); experiment: SEC
[8] = target: full-length SaPC F403A mutant (Staphylococcus aureus); experiment: AUC; remark: listed apart in the source
[9] = target: full-length SaPC K442E mutant (Staphylococcus aureus); experiment: AUC
[10] = target: full-length SaPC K442E mutant (Staphylococcus aureus); experiment: SEC
[11] = target: full-length SaPC K442E mutant (Staphylococcus aureus); experiment: AUC; remark: listed apart in the source
AUC [12] = target: the molecule itself; experiment: AUC
AUC [13] = target: the molecule itself; experiment: AUC; remark: listed apart in the source

full-length SaPC R54E mutant
Monomer (%) (AUC [1]): 4%

full-length SaPC R54E mutant (enzyme)
Kd [2]: 3 nM
stoichiometry N [3]: 4
Dimer (%) [4]: 0%
Kd [4]: 530 nM
Tetramer (%) [4]: 96%

full-length SaPC F403A mutant
Monomer (%) (AUC [1]): 9%

isolated BC domain of SaPC, R54E mutant (domain or fragment)
Kd [5]: 195000 nM

full-length SaPC K442E mutant
Monomer (%) (AUC [1]): 10%

full-length SaPC F403A mutant (enzyme)
Kd [6]: 11 nM
stoichiometry N [7]: 4
Dimer (%) [8]: 2%
Kd [8]: 450 nM
Tetramer (%) [8]: 85%

full-length SaPC K442E mutant (enzyme)
Kd [9]: 840000 nM
stoichiometry N [10]: 2
Dimer (%) [11]: 65%
Kd [11]: 820 nM

B1: wild-type full-length Staphylococcus aureus pyruvate carboxylase (enzyme, UniProt A0A0H3JRU9 1-1150, looked up)
chain: MKQIKKLLVANRGEIAIRIFRAAAELDISTVAIYSNEDKSSLHRYKADESYLVGSDLGPAESYLNIERIIDVAKQANVDAIHPGYGFLSENEQFARRCAEEGIKFIGPHLEHLDMFGDKVKARTTAIKADLPVIPGTDGPIKSYELAKEFAEEAGFPLMIKATSGGGGKGMRIVREESELEDAFHRAKSEAEKSFGNSEVYIERYIDNPKHIEVQVIGDEHGNIVHLFERDCSVQRRHQKVVEVAPSVGLSPTLRQRICDAAIQLMENIKYVNAGTVEFLVSGDEFFFIEVNPRVQVEHTITEMVTGIDIVKTQILVAAGADLFGEEINMPQQKDITTLGYAIQCRITTEDPLNDFMPDTGTIIAYRSSGGFGVRLDAGDGFQGAEISPYYDSLLVKLSTHAISFKQAEEKMVRSLREMRIRGVKTNIPFLINVMKNKKFTSGDYTTKFIEETPELFDIQPSLDRGTKTLEYIGNVTINGFPNVEKRPKPDYELASIPTVSSSKIASFSGTKQLLDEVGPKGVAEWVKKQDDVLLTDTTFRDAHQSLLATRVRTKDMINIASKTADVFKDGFSLEMWGGATFDVAYNFLKENPWERLERLRKAIPNVLFQMLLRASNAVGYKNYPDNVIHKFVQESAKAGIDVFRIFDSLNWVDQMKVANEAVQEAGKISEGTICYTGDILNPERSNIYTLEYYVKLAKELEREGFHILAIKDMAGLLKPKAAYELIGELKSAVDLPIHLHTHDTSGNGLLTYKQAIDAGVDIIDTAVASMSGLTSQPSANSLYYALNGFPRHLRTDIEGMESLSHYWSTVRTYYSDFESDIKSPNTEIYQHEMPGGQYSNLSQQAKSLGLGERFDEVKDMYRRVNFLFGDIVKVTPSSKVVGDMALYMVQNDLDEQSVITDGYKLDFPESVVSFFKGEIGQPVNGFNKDLQAVILKGQEALTARPGEYLEPVDFEKVRELLEEEQQGPVTEQDIISYVLYPKVYEQYIQTRNQYGNLSLLDTPTFFFGMRNGETVEIEIDKGKRLIIKLETISEPDENGNRTIYYAMNGQARRIYIKDENVHTNANVKPKADKSNPSHIGAQMPGSVTEVKVSVGETVKANQPLLITEAMKMETTIQAPFDGVIKQVTVNNGDTIATGDLLIEIEKATD
Kd (AUC [12]): 8 ± 0.6 nM
Kd (AUC [13]): 750 ± 60 nM
